Experimental data from patent US7563583B2, “Heregulin variants” (Genentech, Inc., priority 1997, dated 2009).

What follows are molecules tested on ErbB-3 or ErbB-4 receptors (assay: Alanine scan of the HRG-β1 EGF-like domain by phage ELISA (FIG. 2)). Settings: ratio of variant EC50 to wild-type EC50.
Type: binding
Description: The X axis lists each amino acid that was changed to alanine and its position. […] The EC50 was calculated as the concentration of soluble receptor fusion required to displace 50% of the total amount of phage bound to immobilized receptor fusion. ErbB-3 binding results are shown with black bars, and ErbB-4 binding results are shown with white bars.
Alanine-substituted variants were generated by site-directed mutagenesis according to Kunkel et al., Methods Enzymol. 154:367-82 (1987) (hereinafter “Kunkel mutagenesis”), using uracil-containing single-stranded DNA template prepared from pHRG2-g3. pHRG2-g3, which is described in Example 1, expressed HRG-β1 177-244 fused to pIII 247. A series of oligonucleotides was used to generate a series of constructs that expressed a series of variants in which consecutive residues were mutated to alanine. Phage stocks were prepared from these constructs as described in Example 1, except that PEG(8000) was used to precipitate the phage. The affinities of the alanine-substituted variants for ErbB-3-Ig and ErbB-4-Ig was determined by phage ELISA as described in Example 1.

Row | Molecule | effect of substitution with alanine on affinity for the ErbB-3 or ErbB-4 receptors
1 | V191: HRG-β1 variant with V191 mutated to alanine (protein, UniProt Q02297 1-640, looked up, variant V191A) MSERKEGRGKGKGKKKERGSGKKPESAAGSQSPALPPRLKEMKSQESAAGSKLVLRCETSSEYSSLRFKWFKNGNELNRKNKPQNIKIQKKPGKSELRINKASLADSGEYMCKVISKLGNDSASANITIVESNEIITGMPASTEGAYVSSESPIRISVSTEGANTSSSTSTSTTGTSHLVKCAEKEKTFCANGGECFMVKDLSNPSRYLCKCQPGFTGARCTENVPMKVQNQEKAEELYQKRVLTITGICIALLVVGIMCVVAYCKTKKQRKKLHDRLRQSLRSERNNMMNIANGPHHPNPPPENVQLVNQYVSKNVISSEHIVEREAETSFSTSHYTSTAHHSTTVTQTPSHSWSNGHTESILSESHSVIVMSSVENSRHSSPTGGPRGRLNGTGGPRECNSFLRHARETPDSYRDSPHSERYVSAMTTPARMSPVDFHTPSSPKSPPSEMSPPVSSMTVSMPSMAVSPFMEEERPLLLVTPPRLREKKFDHHPQQFSSFHHNPAHDSNSLPASPLRIVEDEEYETTQEYEPAQEPVKKLANSRRAKRTKPNGHIANRLEVDSNTSSQSSNSESETEDERVGEDTPFLGIQNPLAASLEATPAFRLADSRTNPAGRFSTQEEIQARLSSVIANQDPIAV | two and five
2 | N204: HRG-β1 variant with N204 mutated to alanine (protein, UniProt Q02297 1-640, looked up, variant N204A) MSERKEGRGKGKGKKKERGSGKKPESAAGSQSPALPPRLKEMKSQESAAGSKLVLRCETSSEYSSLRFKWFKNGNELNRKNKPQNIKIQKKPGKSELRINKASLADSGEYMCKVISKLGNDSASANITIVESNEIITGMPASTEGAYVSSESPIRISVSTEGANTSSSTSTSTTGTSHLVKCAEKEKTFCVNGGECFMVKDLSAPSRYLCKCQPGFTGARCTENVPMKVQNQEKAEELYQKRVLTITGICIALLVVGIMCVVAYCKTKKQRKKLHDRLRQSLRSERNNMMNIANGPHHPNPPPENVQLVNQYVSKNVISSEHIVEREAETSFSTSHYTSTAHHSTTVTQTPSHSWSNGHTESILSESHSVIVMSSVENSRHSSPTGGPRGRLNGTGGPRECNSFLRHARETPDSYRDSPHSERYVSAMTTPARMSPVDFHTPSSPKSPPSEMSPPVSSMTVSMPSMAVSPFMEEERPLLLVTPPRLREKKFDHHPQQFSSFHHNPAHDSNSLPASPLRIVEDEEYETTQEYEPAQEPVKKLANSRRAKRTKPNGHIANRLEVDSNTSSQSSNSESETEDERVGEDTPFLGIQNPLAASLEATPAFRLADSRTNPAGRFSTQEEIQARLSSVIANQDPIAV | two
3 | D201: HRG-β1 variant with D201 mutated to alanine (protein, UniProt Q02297 1-640, looked up, variant D201A) MSERKEGRGKGKGKKKERGSGKKPESAAGSQSPALPPRLKEMKSQESAAGSKLVLRCETSSEYSSLRFKWFKNGNELNRKNKPQNIKIQKKPGKSELRINKASLADSGEYMCKVISKLGNDSASANITIVESNEIITGMPASTEGAYVSSESPIRISVSTEGANTSSSTSTSTTGTSHLVKCAEKEKTFCVNGGECFMVKALSNPSRYLCKCQPGFTGARCTENVPMKVQNQEKAEELYQKRVLTITGICIALLVVGIMCVVAYCKTKKQRKKLHDRLRQSLRSERNNMMNIANGPHHPNPPPENVQLVNQYVSKNVISSEHIVEREAETSFSTSHYTSTAHHSTTVTQTPSHSWSNGHTESILSESHSVIVMSSVENSRHSSPTGGPRGRLNGTGGPRECNSFLRHARETPDSYRDSPHSERYVSAMTTPARMSPVDFHTPSSPKSPPSEMSPPVSSMTVSMPSMAVSPFMEEERPLLLVTPPRLREKKFDHHPQQFSSFHHNPAHDSNSLPASPLRIVEDEEYETTQEYEPAQEPVKKLANSRRAKRTKPNGHIANRLEVDSNTSSQSSNSESETEDERVGEDTPFLGIQNPLAASLEATPAFRLADSRTNPAGRFSTQEEIQARLSSVIANQDPIAV | two
4 | L209: HRG-β1 variant with L209 mutated to alanine (protein, UniProt Q02297 1-640, looked up, variant L209A) MSERKEGRGKGKGKKKERGSGKKPESAAGSQSPALPPRLKEMKSQESAAGSKLVLRCETSSEYSSLRFKWFKNGNELNRKNKPQNIKIQKKPGKSELRINKASLADSGEYMCKVISKLGNDSASANITIVESNEIITGMPASTEGAYVSSESPIRISVSTEGANTSSSTSTSTTGTSHLVKCAEKEKTFCVNGGECFMVKDLSNPSRYACKCQPGFTGARCTENVPMKVQNQEKAEELYQKRVLTITGICIALLVVGIMCVVAYCKTKKQRKKLHDRLRQSLRSERNNMMNIANGPHHPNPPPENVQLVNQYVSKNVISSEHIVEREAETSFSTSHYTSTAHHSTTVTQTPSHSWSNGHTESILSESHSVIVMSSVENSRHSSPTGGPRGRLNGTGGPRECNSFLRHARETPDSYRDSPHSERYVSAMTTPARMSPVDFHTPSSPKSPPSEMSPPVSSMTVSMPSMAVSPFMEEERPLLLVTPPRLREKKFDHHPQQFSSFHHNPAHDSNSLPASPLRIVEDEEYETTQEYEPAQEPVKKLANSRRAKRTKPNGHIANRLEVDSNTSSQSSNSESETEDERVGEDTPFLGIQNPLAASLEATPAFRLADSRTNPAGRFSTQEEIQARLSSVIANQDPIAV | two and five
5 | V199: HRG-β1 variant with V199 mutated to alanine (protein, left off: large carriers; small tags and cut ends, HRG-β1 variant with V199 mutated to alanine) SHLVKCAEKEKTFCVNGGECFMAKDLSNPSRYLCKCPNEFTGDRCQNYVMASFYKHLGIEFMEAEELY | two
6 | K200: HRG-β1 variant with K200 mutated to alanine (protein, left off: large carriers; small tags and cut ends, HRG-β1 variant with K200 mutated to alanine) SHLVKCAEKEKTFCVNGGECFMVADLSNPSRYLCKCPNEFTGDRCQNYVMASFYKHLGIEFMEAEELY | two
7 | F229: HRG-β1 variant with F229 mutated to alanine (protein, left off: large carriers; small tags and cut ends, HRG-β1 variant with F229 mutated to alanine) SHLVKCAEKEKTFCVNGGECFMVKDLSNPSRYLCKCPNEFTGDRCQNYVMASAYKHLGIEFMEAEELY | two and five
8 | E215: HRG-β1 variant with E215 mutated to alanine (protein, left off: large carriers; small tags and cut ends, HRG-β1 variant with E215 mutated to alanine) SHLVKCAEKEKTFCVNGGECFMVKDLSNPSRYLCKCPNAFTGDRCQNYVMASFYKHLGIEFMEAEELY | two
9 | P205: HRG-β1 variant with P205 mutated to alanine (protein, left off: large carriers; small tags and cut ends, HRG-β1 variant with P205 mutated to alanine) SHLVKCAEKEKTFCVNGGECFMVKDLSNASRYLCKCPNEFTGDRCQNYVMASFYKHLGIEFMEAEELY | two
10 | S177: HRG-β1 variant with S177 mutated to alanine (protein, left off: large carriers, HRG-β1 variant with S177 mutated to alanine) AHLVKCAEKEKTFCVNGGECFMVKDLSNPSRYLCKCPNEFTGDRCQNYVMASFYKHLGIEFMEAEELY | two and five
